Twelve molecules from patent publication US20240124597A1 (Bristol-Myers Squibb, published 2024) can be followed below.

Test [1] has as its target T1, human-CD40-monomer protein (human, UniProt P25942 21-193, limits assumed).
T1 construct: Soluble monomer generated in house, used as SPR analyte; also called hCD40; hCD40-monomer
Kind of test: SPR, purified Ab captured on protein A, hCD40 monomer 500-3.9 nM, 37 C, 1:1 Langmuir fit. The procedure:
(§1) Based on the sequences, titer, and SPR binding data, antibodies were selected for larger scale expression, purification, and further characterization. SPR analysis using purified antibodies was performed by capturing antibodies on a protein A surface, with binding of a 500-3.9 nM (2:1) dilution series of human-CD40 monomer, at either 25° C. or 37° C. in PBS-T pH 7.1 buffer; the titration data was fit to a 1:1 Langmuir model.
(§2) SPR data are fit to a 1:1 Langmuir model using BIAcore™ T200 evaluation software to obtain values for the association rate constant (ka), dissociation rate constant (kd) and dissociation constant (KD).
A general note: SPR reads the build-up and loss of mass on a sensor chip optically.

For test [2], the target named is T1, human-CD40-monomer protein. Briefly: SPR, purified Ab captured on protein A, hCD40 monomer 500-3.9 nM, 25 C, 1:1 Langmuir fit. Here is the method:
as §1, §2

In test [3] the target is human CD40 on cells (tonsillar B cells, immature dendritic cells, Ramos-Blue cells) (human, UniProt P25942 21-277). Briefly: cell-based or functional assay.
The target in test [4] is T1, human-CD40-monomer protein. Kind of test: SPR, Ab captured on protein A, hCD40 monomer 500 and 50 nM, 1:1 fit; supernatant. Here is the method:
(§3) Titer analysis was performed using Biolayer Interferometry (BLI) on an Octet RED instrument (Fortebio) by capturing antibodies from supernatant using protein A sensor tips and measuring capture response with respect to a standard curve obtained using a control antibody sample. SPR data were obtained by capturing antibodies on a protein A surface and testing the binding of 500 nM and 50 nM injections of human-CD40 analyte, using a BIAcore™ T200 instrument (GE Healthcare). The kinetic data for the two concentrations of hCD40-monomer were fit to a 1:1 Langmuir model, to yield estimates of the kinetic and affinity values for these interactions, and for comparison of the different molecules.

Test [5] concerns the target T1, human-CD40-monomer protein. Kind of test: SPR, Ab captured on protein A, 1 uM hCD40 monomer, single concentration, apparent value. The procedure: The CD40 kinetic and affinity data for human-CD40 monomer binding to mouse anti-human CD40 antibodies captured on a protein A sensor chip surface were assessed by SPR. The data shown are for a single concentration of CD40 analyte (1 μM) and are therefore reported as apparent (app) values.

For test [6], the target named is T1, human-CD40-monomer protein. Kind of test: SPR, Ab captured on protein A, hCD40 monomer 500 and 50 nM, 1:1 fit; purified. Here is the method:
as §3

By koff is commonly meant the first-order rate constant of dissociation. For orientation: kon means the second-order rate constant of association.

T1 sequence (P25942 21-193 limits assumed): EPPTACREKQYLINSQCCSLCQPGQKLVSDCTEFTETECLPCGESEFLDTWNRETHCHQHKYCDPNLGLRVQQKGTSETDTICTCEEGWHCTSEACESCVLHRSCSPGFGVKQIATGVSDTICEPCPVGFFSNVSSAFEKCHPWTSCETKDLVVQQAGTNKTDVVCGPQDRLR
Sequence of human CD40 on cells (tonsillar B cells, immature dendritic cells, Ramos-Blue cells) (P25942 21-277 limits assumed): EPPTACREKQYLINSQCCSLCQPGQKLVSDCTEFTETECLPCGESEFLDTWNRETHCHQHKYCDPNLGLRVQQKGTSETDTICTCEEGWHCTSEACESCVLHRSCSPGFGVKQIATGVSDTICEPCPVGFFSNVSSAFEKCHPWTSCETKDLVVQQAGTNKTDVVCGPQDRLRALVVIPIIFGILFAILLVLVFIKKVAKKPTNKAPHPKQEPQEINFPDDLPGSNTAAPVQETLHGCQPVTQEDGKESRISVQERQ

B1: Y12XX-hz42-P238K (antibody, human IgG1, kappa, V domains shown)
VH: QVQLVQSGAEVKKPGSSVKVSCKASGYAFTSYWMHWVRQAPGQGLEWMGQINPTTGRSQYNEKFKTRVTITADKSTSTAYMELSSLRSEDTAVYYCARWGLQPFAYWGQGTLVTVSS
VL: EIVMTQSPATLSVSPGERATLSCKASQDVSTAVAWYQQKPGQAPRLLIYSASYRYTGIPARFSGSGSGTEFTLTISSLQSEDFAVYYCQQHYSTPWTFGGGTKVEIKR
notes: also called Vh-hz14;Vk-hz3
In test [1], B1 came in with a Kd of 5.5 nM, a koff of 0.0034 s⁻¹ and a kon of 630000 M⁻¹ s⁻¹. Moreover, in test [2], the Kd is 2.3 nM, the koff came out at 0.00073 s⁻¹ and the kon amounted to 310000 M⁻¹ s⁻¹. In addition, the “Inhibition of B cell proliferation induced by soluble CD40L trimer, Average (IC50 ng/ml)” value in test [3] was found to be 12.1 ng/mL. Further, in test [4], the Kd worked out at 3.5 nM, the koff stood at 0.00083 s⁻¹ and the kon turned out to be 240000 M⁻¹ s⁻¹.

B2: Y12XX-hz40-P238K (antibody, human IgG1, kappa, V domains shown)
VH: QVQLVQSGAEVKKPGSSVKVSCKASGYAFTSYWMHWVRQAPGQGLEWMGQINPSQGRSQYNEKFKTRVTITADKSTSTAYMELSSLRSEDTAVYYCARWGLQPFAYWGQGTLVTVSS
VL: EIVMTQSPATLSVSPGERATLSCKASQDVSTAVAWYQQKPGQAPRLLIYSASYRYTGIPARFSGSGSGTEFTLTISSLQSEDFAVYYCQQHYSTPWTFGGGTKVEIKR
notes: also called Vh-hz12;Vk-hz3
In the case of B2, the Kd in test [1] was 10.9 nM; in test [2] it was 4.4 nM; in test [4] it was 4.7 nM. In addition, the koff in test [1] was found to be 0.0057 s⁻¹; in test [2], 0.0013 s⁻¹; in test [4] it was 0.0011 s⁻¹. Besides, the kon in test [1] is 520000 M⁻¹ s⁻¹; in test [2] it was 290000 M⁻¹ s⁻¹; in test [4], 240000 M⁻¹ s⁻¹. The “Inhibition of B cell proliferation induced by soluble CD40L trimer, Average (IC50 ng/ml)” value in test [3] was 6 ng/mL.

B3: ADX_Y1258.ZZ0-1 (antibody, V domains shown)
VH: QVQLQQSGAELAKPGSSVKMSCKASGYAFTSYWMHWIKQRPGQGLEWIGFINPTTGYSEYNQKFKDKATLTADKSSSTAYMQLNSLTSEDSAVYFCARWGLPPFAYWGQGTLVTVSA
VL: DIVMTQSHKFMSTSVGDRVSITCKASQDVSTAVAWYQQKPGQSPKLLIYSASYRYTGVPDRFTGSGSGTDFTFTISSVQAEDLAVYYCQQHYSTPWTFGGGTKLEIK
notes: Mouse anti-human-CD40 antibody
As to B3, in test [5], the Kd is 7.9 nM, the koff came out at 0.00013 s⁻¹ and the kon was determined as 17000 M⁻¹ s⁻¹.

B4: ADX_Y1264.ZZ0-1 (antibody, V domains shown)
VH: EVQLQQSGTVLARPGASVKMSCRASGYSFSSYWMHWVKQRPGQGLEWIGSINPGNSDAFYNQQFKGKAKLTAVTSASTAYMELSSLTNEDSAVYYCTRWGLPPFAYWGQGTLVTVSA
VL: DIVMTQSHKFMSTSVGDRVSITCKASQDVSTAVAWYQQKPGQSPKLLIYSASYRYTGVPDRFTGSGSGTDFTFTISSVQAEDLAVYYCHQHYSTPWTFGGGTKLEIK
notes: as for B3
Take B4: in test [5], the Kd was determined as 17 nM, the koff worked out at 0.00023 s⁻¹ and the kon stood at 14000 M⁻¹ s⁻¹.

B5: ADX_Y1267.ZZ0-1 (antibody, V domains shown)
VH: QVQLQQPGAELVKPGASVRLSCEASGYSFTSYWMHWVKQRPGQGLEWIGQINPSNGRTQYNEKFKSMATLTVDKSSSTAYIQLNSLTSEDSAVYYCARWGLQPFAYWGQGTLVTVSA
VL: DIVMTQSHKFMSTSVGDRVSITCKASQDVSTAVAWYQQKPGQSPKLLIYSASYRYTGVPDRFTGSGSGTDFTFTISSVQAEDLAVYYCLQHYTTPWTFGGGTKLEIK
notes: as for B3
In the case of B5, in test [5], the Kd was found to be 1.1 nM, the koff is 0.00041 s⁻¹ and the kon came to 370000 M⁻¹ s⁻¹.

B6: Y1268-hIgG1f (antibody, V domains shown)
VH: QVQLQQPGAELVKPGASVRLSCKASGYAFTSYWMHWVKQRPGQGLEWIGQINPSNGRSQYNEKFKTMATLTVDKSSSTAYIQLSSLTSEDSAVYYCARWGLQPFAYWGQGTLVTVSA
VL: DIVMTQSHKFMSTSVGDRVSITCKASQDVSTAVAWYQQKPGQSPKLLIYSASYRYTGVPDRFTGSGSGTDFTFTISSVQAEDLAVYYCQQHYSTPWTFGGGTKLEIK
notes: Purified chimeric antibody with human wild-type IgG1f; also called purified chimeric Y1268; Chim-P
As for B6, in test [6], the Kd was 3.2 nM, the koff amounted to 0.0013 s⁻¹ and the kon was 400000 M⁻¹ s⁻¹.

B7: Y1258-hIgG1f (antibody)
heavy: not shown
VL: DIVMTQSHKFMSTSVGDRVSITCKASQDVSTAVAWYQQKPGQSPKLLIYSASYRYTGVPDRFTGSGSGTDFTFTISSVQAEDLAVYYCQQHYSTPWTFGGGTKLEIK
notes: Purified chimeric antibody, mouse variable regions with human wild-type IgG1f; also called purified chimeric Y1258; Chim-P
Regarding B7, in test [6], the Kd is 0.01 nM, the koff came out at 5.9e-07 s⁻¹ and the kon came to 58000 M⁻¹ s⁻¹.

B8: ADX_Y1238.ZZ0-1 (antibody, V domains shown)
VH: QVQLQQSGAELVRPGTSVKVSCKASGYAFTNYLIEWVKQRPGQGLEWIGVINPGSGGTNYNEKFKGKATLTADKSSSTAYMQLSSLTSDDSAVYFCARSQLGRRFDYWGQGTTLTVSS
VL: DIVMTQSHKFMSTSVGDRVSITCKASQDVRTGVAWYQQKPGQSPKLLIYSASYRNTGVPDRFTGSRSGTDFTFTISSVQAEDLAVYYCQQHYSPPYTFGGGTKLEIK
notes: as for B3
As for B8, in test [5], the Kd came to 2.2 nM, the koff turned out to be 0.00012 s⁻¹ and the kon was found to be 55000 M⁻¹ s⁻¹.

B9: ADX_Y1268.ZZ0-1 (antibody, V domains shown)
VH: QVQLQQPGAELVKPGASVRLSCKASGYAFTSYWMHWVKQRPGQGLEWIGQINPSNGRSQYNEKFKTMATLTVDKSSSTAYIQLSSLTSEDSAVYYCARWGLQPFAYWGQGTLVTVSA
VL: DIVMTQSHKFMSTSVGDRVSITCKASQDVSTAVAWYQQKPGQSPKLLIYSASYRYTGVPDRFTGSGSGTDFTFTISSVQAEDLAVYYCQQHYSTPWTFGGGTKLEIK
notes: as for B3
Turning to B9, in test [5], the Kd came out at 1.4 nM, the koff stood at 0.00046 s⁻¹ and the kon amounted to 320000 M⁻¹ s⁻¹.

B10: ADX_Y1262.ZZ0-1 (antibody, V domains shown)
VH: QVQLQQSGAELAKPGSSVKMSCKASGYAFTSYWMHWVKQRPGQGLEWIGYINPTTGYSAYNQKFKDKATLTADKSSSTAYMQLNSLTSEDSAVYYCARWDPRPFAYWGQGTLVTVSA
VL: DIVMTQSHKFMSTSVGDRVSITCKASQDVSTAVAWYQQKPGQSPKLLIYSASYRYTGVPDRFTGSGYGTDFTFTISSVQAEDLAVYYCQQHYSTPWTFGGGTKLEIK
notes: as for B3
Regarding B10, in test [5], the Kd came out at 6.6 nM, the koff stood at 0.0025 s⁻¹ and the association rate constant (kon) came to 370000 M⁻¹ s⁻¹.

B11: ADX_Y1260.ZZ0-1 (antibody, V domains shown)
VH: QVQLQQSGAELTKPGASVKMSCKASGYSFTSYWMHWVKQRPGQGLEWIGSINPSTGYTEDNQKFKDKATLTADKSSTTAYMQLSSLTSEDSAVYYCARWGLPPFAYWGQGTLVTVSA
VL: DIVMTQSHKFMSTSVGDRVSITCKASQDVSTAVAWYQQKPGQSPKLLIYSASYRYTGVPDRFTGSGSGTDFTFTISSVQAEDLAVYYCQQHYSTPWTFGGGTKLEIK
notes: as for B3
Turning to B11, in test [5], the Kd stood at 4 nM, the koff worked out at 0.00021 s⁻¹ and the kon turned out to be 52000 M⁻¹ s⁻¹.

B12: Y1262-hIgG1f (antibody)
heavy: not shown
VL: DIVMTQSHKFMSTSVGDRVSITCKASQDVSTAVAWYQQKPGQSPKLLIYSASYRYTGVPDRFTGSGYGTDFTFTISSVQAEDLAVYYCQQHYSTPWTFGGGTKLEIK
notes: Purified chimeric antibody with human wild-type IgG1f; also called purified chimeric Y1262; Y1632-hIgG1f
As to B12, in test [6], the Kd was determined as 12 nM, the koff turned out to be 0.0055 s⁻¹ and the kon worked out at 480000 M⁻¹ s⁻¹.
